Where “and” joins values, the source holds several entries; their conditions need not be identical. Equal entries are not always repeated.
Tests used:
[1] = biological target: T1, RON on HCT116, HT29, and SW620 cells (Homo sapiens, UniProt Q04912); experiment: Flow cytometric binding to CRC cell lines; details: all three CRC cell lines, flow cytometry
T1 construct: We selected CRC cell lines LoVo, DLD1, HT29, HCT116, and SW620 expressing variable levels of RON as the cellular model; host or cells: HCT116, HT29, SW620
Experimental: FIG. 2B: Binding of Zt/g4-DM1 to human CRC cell lines: HCT116, HT29, and SW620 cells (1×10^5 cells) were incubated with 5 μg Zt/g4-DM1 or Zt/c1-DM1. Free Zt/g4 and Zt/c1 was used as the control. Fluorescence intensity from individual samples was determined by flow cytometric analysis.
The binding capacity of Zt/g4-DM1 to RON was determined by flow cytometric analysis.

[2] = In vivo toxicity in athymic nude mice; set-up: species or system mouse
Experimental: FIGS. 6A to 6C show the toxicity of Zt/g4-DM1 in vivo. Body weight was measured every four days during the period of Zt/g4-DM1 treatment. FIG. 6A: Effect of multiple doses of Zt/g4-DM1 on mouse body weight was determined by administration of Zt/g4-DM1 at 1, 3, 7, 10, 15 mg/kg every four day with a total of 5 injections. Mice were weighed and monitored for a total of 31 days. FIG. 6B: Effect of a single dose of Zt/g4 at 20 mg/kg on mouse body weight was determined using mice bearing HT29, HCT116, or SW620-derived tumors. Body weight was monitored up to 28 days. FIG. 6C: Effect of high doses of Zt/G4-DM1 on mouse body weight was analyzed by tail vein injection at 20, 40 and 60 mg/kg to Balb/c mice. Mice were euthanized at day 21. In all cases, the average body weight of mice before Zt/g4-DM1 injection was 19.8±3.6 grams (5 mice per group) and set as 100%;
In vivo toxicity studies: Acute toxicity with maximum tolerated dose was determined in Balb/C mice (four mice per dose) by a single tail vein injection of Zt/g4-DM1 at 20, 40, and 60 mg/kg body weight. Toxicity associated with different therapeutic doses was evaluated in athymic nude mice bearing HT29 tumor xenograft (five mice per dose). […] Toxicity was assessed by observing mouse behavior, weight loss, and survival.
Toxic effect of Zt/g4-DM1 on mice. Three studies using two different types of mice were performed to study Zt/g4-DM1 on animal behavior and body weight. The first study addressed the impact of multi-doses of Zt/g4-DM1. Athymic nude mice were injected five times with 1, 3, 5, 7, 10, 15 mg/kg of Zt/g4-DM1 and monitored every four days for a total period of 31 days. […] The second study observed the effect of a single dose of Zt/g4-DM1 at 20 mg/kg in nude mice bearing tumors derived from HT29, HCT116, and SW620 cells. […] The third study involved a single-dose injection of Zt/g4-DM1 at 20, 40, and 60 mg/kg in Balb/c mice monitored for 24 days (FIG. 6C). […] Also, a moderate reduction of about 6% body weight was observed within the first four days after 60 mg/kg Zt/g4-DM1 injection. […]

three CRC cell lines = experiment: Cell viability, three CRC cell lines together; details: 72 h after treatment
Experimental: (§1) Cell viability and death assays: Cell viability 72 h after Zt/g4-DM1 treatment was determined by the MTT assay (22). Viable or dead cells were determined by the trypan blue exclusion assay. A total of 900 cells were counted from three individual wells to reach the percentages of dead cells.

RON-negative LoVo cells = experiment: Cell viability assay, LoVo; format: cell-based, human
Experimental: as §1
The effect of Zt/g4-DM1 on cell viability was determined. […] The cells were treated with Zt/g4-DM1.

[3] = Stability of Zt/g4-DM1 at 37° C. by HIC (DAR); format: physicochemical
Source text: FIGS. 1A to 1C show the generation and characterization of anti-RON ADC Zt/g4-DM1. FIG. 1A: Schematic representation of Zt/g4-DM1 structure: Zt/g4 is a mouse mAb specific to the RON sema domain (18). DM1 was conjugated to Zt/g4 by non-reducible thioether linkage (SMCC) through lysine residues in the antibody molecule. FIG. 1B: HIC analysis of the number of DM1 conjugated to Zt/g4: Individual Zt/g4-DM1s with different numbers of DM1 (0 to 8) are marked as P0 to P8. FIG. 1C: Stability of Zt/g4-DM1. Zt/g4-DM1 was kept at 37° C. for 30 days. Samples analyzed at different time-points with the average DARs were shown;
Analysis of Zt/g4-DM1 conjugation and its stability: The conjugation of DM1 to Zt/g4 was verified by hydrophobic interaction chromatography (HIC) using a Varian Prostar 210 Quaternary HPLC system coupled with a TSK butyl-NPR 4.6×3.5 column (Tosoh Biosciences (Prussia, Pa.) (31). The average DARs were calculated from the integrated areas of the DAR species. This method also was used to determine the stability of Zt/g4-DM1 at 37° C.
The stability of Zt/g4-DM1 was determined by incubating the conjugates in vitro at 37° C. for 30 days. DAR changes were measured by HIC from different time-points.

[4] = five injections of 1, 3, 5, 7, 10, 15 mg/kg, 31 days

B1: Zt/g4-DM1: anti-RON mouse mAb Zt/g4 conjugated to maytansinoid DM1 via non-reducible thioether linkage (SMCC), DAR about 4:1 (conjugate)
VH: EVQLQQSGAELVKPGASVKLSCTTSGFNIIDTYIHWVNQKPDQGLEWIGRIDPADGNRKSDPKFQVKATITVDTSSNTAYLQLSSLTSGDTAVYYCARGYGNLNAMDSWGQGTSVTVSS
VL: DIQMNQSPSSLSASLGDTITITCHASQNINVWLNWYQQKPGNIPKLLIYKASNLHTGVPSRFSGSGSGTGFTLTISSLQPEDIATYYCQQGQSYPLTFGGGTKLEIK
binding intensity compared with free Zt/g4 [1]: No difference in binding intensity | average body weight [2, 4]: comparable to that of control mice with no differences | mouse behavior [2, 4]: behaved normally | behavior and body weight ([2]; single dose 20 mg/kg, tumor-bearing nude mice): No changes in behavior or body weight were observed | reduction in cell viability (three CRC cell lines): More than 80% | effect on cell viability (RON-negative LoVo cells): no effect | time stable at 37° C. [3]: up to 30 days | peak 5 share of conjugates at day 30 ([3]; 25.39% at day 0): 20.06% | peak 4 share of conjugates at day 30 ([3]; 39.05% at day 0): 32.72% | reduction in DAR after 30 days ([3]; day 30 vs day 0): 6.4% and 6.5% | average DAR at day 30 ([3]; in vitro, HIC): 3.484

Reference: patent US20160311918A1, “Anti-Ron Monoclonal Antibodies as a Cytotoxic Drug Delivery System for Targeted Cancer Therapy” (TEXAS TECH UNIVERSITY SYSTEM, priority 2013, published 2016)
